Laboratory results reported in IntAct's records for PubMed 17360471.

Target: sgk1_human SGK1 (UniProt O00141)
Sequence (O00141 whole entry): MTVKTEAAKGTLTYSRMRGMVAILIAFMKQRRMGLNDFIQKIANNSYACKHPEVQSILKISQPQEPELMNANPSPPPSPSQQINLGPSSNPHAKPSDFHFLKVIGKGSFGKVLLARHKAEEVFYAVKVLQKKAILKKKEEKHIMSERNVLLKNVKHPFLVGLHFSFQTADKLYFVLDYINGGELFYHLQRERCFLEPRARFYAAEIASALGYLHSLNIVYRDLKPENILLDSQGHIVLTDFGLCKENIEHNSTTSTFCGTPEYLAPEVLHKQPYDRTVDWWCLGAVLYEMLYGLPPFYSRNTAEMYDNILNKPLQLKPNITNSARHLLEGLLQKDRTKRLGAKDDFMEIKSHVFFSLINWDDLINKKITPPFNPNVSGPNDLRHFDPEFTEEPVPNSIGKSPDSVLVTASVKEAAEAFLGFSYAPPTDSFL

| Substance | effect of a mutation on the interaction |
| --- | --- |
| Serine/threonine-protein kinase WNK4 (Mus musculus), Q80UE6 Q562E | decreasing interaction strength |
| Serine/threonine-protein kinase WNK4 (Mus musculus), Q80UE6 S1169D | decreasing interaction strength |
